Assay results from patent US20240400703A1 (Genmab, published 2024).
“And” between values parts separate entries of the source, which are not always exact repeats. Identical values can stand only once.

Columns and labels:
[1] = biological target: T1, mouse OX40 expressed on ExpiCHO-S cells (mouse, UniProt P47741 20-272); experiment: flow cytometry, transfected ExpiCHO-S cells, gMFI (PE)
T1 construct: full-length entry; also called OX40mm; wild-type mouse OX40
T1 sequence: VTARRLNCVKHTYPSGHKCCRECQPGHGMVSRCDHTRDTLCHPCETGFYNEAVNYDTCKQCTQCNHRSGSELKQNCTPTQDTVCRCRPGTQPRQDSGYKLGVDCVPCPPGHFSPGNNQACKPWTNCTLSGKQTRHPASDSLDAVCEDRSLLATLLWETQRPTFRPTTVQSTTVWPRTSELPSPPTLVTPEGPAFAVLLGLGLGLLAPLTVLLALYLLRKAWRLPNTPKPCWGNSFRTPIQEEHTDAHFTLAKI

[2] = biological target: T2, human OX40 expressed on cells (human, UniProt P43489 29-277); experiment: flow cytometry, loss of sOX40L (2 µg/mL) binding to activated human CD4+ T cells; competitor sOX40L; unit taken from the upper half of the table
T2 construct: also called CD134; TNFRSF4
T2 sequence: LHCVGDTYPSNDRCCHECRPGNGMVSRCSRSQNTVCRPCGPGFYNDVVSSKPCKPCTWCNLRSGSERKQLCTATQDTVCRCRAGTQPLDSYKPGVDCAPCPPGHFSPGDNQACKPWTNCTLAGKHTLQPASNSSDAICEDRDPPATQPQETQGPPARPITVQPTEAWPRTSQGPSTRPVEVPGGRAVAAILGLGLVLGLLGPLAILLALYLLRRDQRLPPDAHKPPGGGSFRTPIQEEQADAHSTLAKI
Procedure: (§1) Stimulated PBMCs were pelleted, resuspended in FACS buffer 2 (DPBS with 2% heat-inactivated FBS [Sigma-Aldrich, cat. no. F7524] and 2 mM EDTA [Sigma-Aldrich, cat. no. 03690]), and seeded (100,000 cells/well) in round-bottom 96-well plates (VWR International GmbH, cat. no. 734-197). […] Next, cells were washed twice in FACS buffer, and incubated with 30 μL of the antibody panel described in Table 11 diluted in FACS buffer 2 containing 1:1,500 Fixable Viability Stain eFluor 780 at 4° C. for 20 min, protected from light. The cells were subsequently washed twice with 120-150 μL FACS buffer 2 and measured on a BD FACSCelesta flow cytometer using a BD High Throughput sampler and subsequent analysis was done using FlowJo software.

[3] = biological target: T2, human OX40 expressed on cells; experiment: flow cytometry, loss of sOX40L (2 µg/mL) binding to activated human CD8+ T cells; competitor sOX40L; unit taken from the upper half of the table
Procedure: as §1

[4] = biological target: T2, human OX40 expressed on cells; experiment: flow cytometry, activated human CD8+ T cells, donor 1
Procedure: Healthy human donor PBMCs were purified essentially as described in Example 7. The cell concentration was adjusted to 2×10⁶ cells per mL (final concentration) in assay medium and plated in 6-well plates (Greiner, cat. no. 657160). PBMCs were stimulated with 0.3 μg/mL anti-CD3 ([…] Technologies, cat. no. 60011) and 0.5 μg/mL anti-CD28 antibodies (BioLegend, cat. no. 302934) and cultured for two days at 37° C., 5% CO₂. Next, the PBMCs were harvested, counted and brought to a concentration of 2×10⁶ cells per mL in FACS buffer 1 (DPBS with 2% heat-inactivated FBS and 2 mM ethylenediaminetetraacetic acid [EDTA]). […] After 60 min at RT, the cells were prepared for flow cytometric analyses. To this end, the cells were washed twice with 150 μL FACS buffer 1 and 30 μL/well cell-surface antibody mix (Table 9) in FACS buffer 1 containing antibody against human Fcγ antibody (Table 9) and fixable viability dye eFluor780 (1:1,500) was added. The staining procedures were carried out at 4° C. for 15-20 min protected from light. Stained cells were washed twice with 120-150 μL FACS buffer 1 (5 min, 460×g, RT) and resuspended in 60-100 μL FACS buffer 1 for direct flow cytometric analyses. Flow cytometric data were acquired on a FACSymphony A3 and analyzed with FlowJo software.

[5] = biological target: T2, human OX40 expressed on cells; experiment: flow cytometry, activated human CD4+ and CD8+ T cells, 2 µg/mL sOX40L
Procedure: as §1

[6] = biological target: T2, human OX40 expressed on cells; experiment: flow cytometry, activated human CD8+ T cells, without sOX40L, n=3
Procedure: as §1

[7] = biological target: T3, recombinant cynomolgus monkey OX40 (Acro Biosystems, cat. no. OX0-C5220) (cynomolgus monkey (Macaca fascicularis), UniProt P43489 29-214 (human entry)); experiment: BLI, Ab on AHC sensor, OX40 analyte; * binding observed, less reliable fit
T3 construct: bought protein; also called Cyno OX40
T3 chain: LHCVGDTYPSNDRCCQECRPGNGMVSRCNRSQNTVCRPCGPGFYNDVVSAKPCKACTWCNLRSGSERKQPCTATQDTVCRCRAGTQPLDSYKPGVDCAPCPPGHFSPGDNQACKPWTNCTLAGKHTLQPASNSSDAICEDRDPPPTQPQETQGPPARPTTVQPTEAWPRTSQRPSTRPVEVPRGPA
Procedure: Experiments were carried out while shaking at 1,000 RPM at 30° C. […] Next, AHC sensors were loaded with antibody (1 μg/mL in Sample Diluent) for 600 s. After a baseline measurement in sample diluent (100 s), the association (200 s) and dissociation (1,000 s) of human OX40 (Acro Biosystems, cat. no. OX0-H5224), and cynomolgus monkey OX40 (Acro Biosystems, cat. no. OX0-C5220) was determined using a concentration range of 0.78 to 800 nM with 2-fold dilution steps.
The theoretical molecular masses of the antigens based on the amino acid sequences were used for calculations. For each antibody, a reference sensor was used which was incubated with Sample Diluent instead of antigen. AHC sensors were regenerated by exposure to 10 mM glycine buffer pH 1.7 for 5 s, followed by neutralization in Sample Diluent for 5 s; both steps were repeated twice. Subsequently sensors were loaded again with antibody for the next cycle of kinetic measurements.
Data were acquired using Data Acquisition Software v12.0 (Sartorius) and analyzed with Data Analysis Software v12.0 (Sartorius). Data traces were corrected per antibody by subtraction of the reference sensor. The Y-axis was aligned to the last 10 s of the baseline and Interstep Correction alignment to dissociation as well as Savitzky-Golay filtering were applied. Data traces with a response <0.05 nm were excluded from analysis. […] The data was fitted with the 1:1 model using a window of interest for the association of 200 s and dissociation times set at 50 s, 200 s and 1,000 s. The dissociation time was chosen based upon R² value, visual inspection of the curve and at least 5% signal decay during the dissociation step.

| Binder | binding result [1] | IC50 [2] | IC50 [3] | EC50 [4] | fold change of EC50 in the presence of sOX40L against its absence [5] | EC50 [6] | Kd [7] | koff [7] | kon [7] |
| --- | --- | --- | --- | --- | --- | --- | --- | --- | --- |
| IgG1-CD134-003-HC6LC2-P329R-E345R (antibody, humanized; human IgG1 with P329R and E345R (Eu numbering), kappa; also called IgG1-CD134-003-HC6LC2-RR) heavy: not shown light: AAVLTQSPSSLSASVGDRVTITCQSSQIVVNNNFLSWYQQKPGKAPKLLIYDASNLASGVPDRFSGSGSGTDFTFTISSLQPEDIATYYCLGGYDDDAENAFGGGTKVEIKRTVAAPSVFIFPPSDEQLKSGTASVVCLLNNFYPREAKVQWKVDNALQSGNSQESVTEQDSKDSTYSLSSTLTLSKADYEKHKVYACEVTHQGLSSPVTKSFNRGEC | no binding (tested: 50 µg/mL) | 579 pM | 561 pM | 0.0329 µg/mL | ~3 fold | 0.017 µg/mL and 0.114 nM |  |  |  |
| IgG1-CD134-012 (antibody, rabbit-human chimeric IgG1) heavy: not shown light: DIVMTQTPASVEAAVGGTVTIKCQASENIYSSLAWYQQKPGQPPKLLIYRTSTLASGVPSRFKGSGSGTQFTLTISDLESDDAATYYCQSYYHNSGGGYDYGFGGGTEVVAKRTVAAPSVFIFPPSDEQLKSGTASVVCLLNNFYPREAKVQWKVDNALQSGNSQESVTEQDSKDSTYSLSSTLTLSKADYEKHKVYACEVTHQGLSSPVTKSFNRGEC |  |  |  |  |  |  | 180000 pM | 0.018 s⁻¹ | 98000 M⁻¹ s⁻¹ |
